The values that follow come from patent US20140274782A1 (Stanford University, published 2014).

Common to all, as to assay: ProtoArray, GST-treated control array;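 also: human protein microarray (about 9500 recombinant proteins) incubated overnight with GST alone plus SAM cofactor as the negative control for G9a SET domain methylation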
Assay [1] addresses T1, SH3YL1-SH3 domain containing, Ysc84-like 1 (S. cerevisiae), mRNA (cDNA clone MGC:12275 IMAGE:3996120), … (human, UniProt Q96HL8 1-342, limits assumed).
T1 sequence (looked up): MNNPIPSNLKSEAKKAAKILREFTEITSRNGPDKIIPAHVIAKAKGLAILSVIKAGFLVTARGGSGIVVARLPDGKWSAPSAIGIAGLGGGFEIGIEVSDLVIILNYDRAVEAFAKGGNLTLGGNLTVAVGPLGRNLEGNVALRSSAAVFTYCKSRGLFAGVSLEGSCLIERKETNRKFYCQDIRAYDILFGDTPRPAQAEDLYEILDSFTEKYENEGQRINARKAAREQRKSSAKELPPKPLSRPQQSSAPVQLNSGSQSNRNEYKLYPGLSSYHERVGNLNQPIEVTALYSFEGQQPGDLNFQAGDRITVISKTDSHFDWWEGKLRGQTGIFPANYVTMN

The target of assay [2] is T2, CD79A-B-cell antigen receptor complex-associated protein alpha-chain (human, UniProt P11912 33-226, limits assumed).
T2 sequence (looked up): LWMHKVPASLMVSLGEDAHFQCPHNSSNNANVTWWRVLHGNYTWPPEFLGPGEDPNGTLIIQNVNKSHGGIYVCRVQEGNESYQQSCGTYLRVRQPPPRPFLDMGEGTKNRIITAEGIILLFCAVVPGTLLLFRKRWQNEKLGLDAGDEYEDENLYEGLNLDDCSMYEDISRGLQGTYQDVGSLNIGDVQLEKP

In assay [3] the target is T3, CDKL5-Cyclin-dependent kinase-like 5 (human, UniProt O76039-1 1-1030, limits assumed).
T3 sequence (looked up): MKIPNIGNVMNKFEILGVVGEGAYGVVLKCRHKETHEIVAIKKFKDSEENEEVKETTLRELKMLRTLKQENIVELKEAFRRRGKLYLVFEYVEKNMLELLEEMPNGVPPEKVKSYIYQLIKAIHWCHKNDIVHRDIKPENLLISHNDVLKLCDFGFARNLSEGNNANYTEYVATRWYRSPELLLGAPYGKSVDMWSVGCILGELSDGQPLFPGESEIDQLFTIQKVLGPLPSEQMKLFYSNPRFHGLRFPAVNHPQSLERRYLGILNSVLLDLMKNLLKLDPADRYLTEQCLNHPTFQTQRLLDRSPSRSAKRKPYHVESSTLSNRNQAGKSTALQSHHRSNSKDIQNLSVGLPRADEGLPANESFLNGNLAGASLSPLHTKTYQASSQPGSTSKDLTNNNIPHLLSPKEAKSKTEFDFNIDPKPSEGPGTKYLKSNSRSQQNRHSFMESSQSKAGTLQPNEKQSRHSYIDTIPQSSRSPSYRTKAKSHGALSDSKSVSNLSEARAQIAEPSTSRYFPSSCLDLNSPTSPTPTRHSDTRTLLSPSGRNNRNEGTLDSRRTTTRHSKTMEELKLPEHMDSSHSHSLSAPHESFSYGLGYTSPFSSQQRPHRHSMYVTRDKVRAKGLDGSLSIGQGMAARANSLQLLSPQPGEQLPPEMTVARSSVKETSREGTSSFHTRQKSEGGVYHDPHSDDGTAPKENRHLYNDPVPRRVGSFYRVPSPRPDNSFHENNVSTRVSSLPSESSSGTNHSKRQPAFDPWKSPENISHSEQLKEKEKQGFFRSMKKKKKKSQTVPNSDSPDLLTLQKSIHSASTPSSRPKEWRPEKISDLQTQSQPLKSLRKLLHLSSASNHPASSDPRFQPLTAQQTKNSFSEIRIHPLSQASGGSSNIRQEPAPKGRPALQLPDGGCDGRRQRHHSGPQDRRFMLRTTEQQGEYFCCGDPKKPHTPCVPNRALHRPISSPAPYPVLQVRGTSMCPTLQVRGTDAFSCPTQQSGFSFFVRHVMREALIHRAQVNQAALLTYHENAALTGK

In assay [4] the target is T4, RDH11-retinol dehydrogenase 11 (all-trans/9-cis/11-cis) (RDH11) (human, UniProt Q8TC12 1-318, limits assumed).
T4 sequence (looked up): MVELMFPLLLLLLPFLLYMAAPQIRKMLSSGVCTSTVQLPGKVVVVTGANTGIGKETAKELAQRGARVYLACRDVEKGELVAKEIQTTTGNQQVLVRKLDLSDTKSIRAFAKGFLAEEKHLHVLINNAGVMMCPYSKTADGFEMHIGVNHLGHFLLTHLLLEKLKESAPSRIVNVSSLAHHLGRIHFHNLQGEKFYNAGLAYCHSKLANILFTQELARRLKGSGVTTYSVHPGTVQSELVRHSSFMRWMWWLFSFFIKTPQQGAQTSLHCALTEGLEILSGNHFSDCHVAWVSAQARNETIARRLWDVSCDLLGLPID

Assay [5] has as its target FTH1-Ferritin heavy chain (human, UniProt P02794 1-183).
Assay [6] deals with T5, KIFC1-kinesin family member C1 (KIFC1) (human, UniProt Q9BW19 1-673).
T5 sequence (looked up): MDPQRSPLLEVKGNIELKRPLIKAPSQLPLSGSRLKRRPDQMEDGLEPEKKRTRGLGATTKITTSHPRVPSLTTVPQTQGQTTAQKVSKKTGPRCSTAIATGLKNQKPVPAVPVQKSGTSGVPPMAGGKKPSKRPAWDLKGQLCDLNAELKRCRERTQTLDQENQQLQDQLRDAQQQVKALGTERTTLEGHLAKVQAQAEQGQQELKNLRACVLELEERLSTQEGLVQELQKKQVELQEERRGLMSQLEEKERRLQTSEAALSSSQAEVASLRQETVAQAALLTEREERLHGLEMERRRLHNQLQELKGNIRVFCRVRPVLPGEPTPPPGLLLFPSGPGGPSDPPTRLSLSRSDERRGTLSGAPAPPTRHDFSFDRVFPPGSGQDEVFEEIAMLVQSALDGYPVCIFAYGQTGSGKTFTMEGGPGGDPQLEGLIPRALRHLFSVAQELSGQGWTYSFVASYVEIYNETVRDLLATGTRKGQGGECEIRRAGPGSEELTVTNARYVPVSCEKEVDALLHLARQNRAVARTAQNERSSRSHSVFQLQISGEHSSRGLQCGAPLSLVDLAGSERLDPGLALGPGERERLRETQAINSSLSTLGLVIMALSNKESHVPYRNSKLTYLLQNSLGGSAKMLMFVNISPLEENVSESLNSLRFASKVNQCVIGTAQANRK

Sequence of FTH1-Ferritin heavy chain (P02794 whole entry): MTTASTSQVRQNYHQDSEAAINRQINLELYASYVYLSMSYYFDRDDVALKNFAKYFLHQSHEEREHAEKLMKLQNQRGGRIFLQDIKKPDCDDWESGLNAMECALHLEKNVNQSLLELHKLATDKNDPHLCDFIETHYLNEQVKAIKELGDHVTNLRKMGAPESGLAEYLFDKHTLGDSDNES

B1: 3× Flag-3×MBT (designed binder)
chain: EEWSSSQPATGEKKECWSWESYLEEQKAITAPVSLFQDSQAVTHNKNGFKLGMKLEGIDPQHPSMYFILTVAEVCGYRLRLHFDGYSECHDFWVNANSPDIHPAGWFEKTGHKLQPPKGYKEEEFSWSQYLRSTRAQAAPKHLFVSQSHSPPPLGFQVGMKLEAVDRMNPSLVCVASVTDVVDSRFLVHFDNWDDTYDYWCDPSSPYIHPVGWCQKQGKPLTPPQDYPDPDNFCWEKYLEETGASAVPTWAFKVRPPHSFLVNMKLEAVDRRNPALIRVASVEDVEDHRIKIHFDGWSHGYDFWIDADHPDIHPAGWCSKTGHPLQPPLGPREPSSASPGG
notes: also called Flag-tagged 3×MBT; 3xFlag-3xMBT; not shown: made by PreScission cleavage of GST-3× Flag-3×MBT
Turning to B1, the “GST Average SNR” value was 0.26 in assay [1]; -0.746 in assay [2]; 1.43 in assay [3]; 0.0685 in assay [4]; 0.815 in assay [5]; 0.745 in assay [6].
